{
  "source": "paper PMC4615771",
  "key": {"[1]": {"biological_target": "T1, GPBP1 eAT-hook (eAT) (Homo sapiens, UniProt D4PHA4 38-80)", "T1 chain": "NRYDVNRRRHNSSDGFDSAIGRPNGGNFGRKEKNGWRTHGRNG", "test": "MST"}, "[2]": {"biological_target": "T1, GPBP1 eAT-hook (eAT)", "test": "MST competition"}, "[3]": {"biological_target": "T2, PTOV1 eATmut (Homo sapiens, UniProt Q86YD1 1-43, R20D;R22D)", "T2 chain": "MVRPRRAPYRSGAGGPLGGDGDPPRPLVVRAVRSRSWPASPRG", "test": "EMSA"}, "[4]": {"biological_target": "T1, GPBP1 eAT-hook (eAT)", "test": "MST"}, "[5]": {"biological_target": "T3, GPBP1 eATmut (Homo sapiens, UniProt D4PHA4 38-80, R59D)", "T3 chain": "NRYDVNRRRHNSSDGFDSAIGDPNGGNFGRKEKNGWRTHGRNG", "test": "MST"}, "[6]": {"biological_target": "T2, PTOV1 eATmut", "test": "MST"}},
  "data": [
    {"binder": "AGUUCCAUGAUGUUUUCAAACUCUAUUACCUACAUUAUUUGAAC (structured_RNA)", "note": "[RNA1]", "values": [
      {"measurement": "apparent K (half saturation)", "setting": "[1]", "value": "378 ± 18", "unit": "nM"},
      {"measurement": "apparent K (half saturation)", "setting": "[2]", "value": "373 ± 19", "unit": "nM"}
    ]},
    {"binder": "rDNA En (gel shift) (dsDNA) DNA 1: TGGATCTTTTTTTTTTTTTTTCTTTTTTCCTCCA DNA 2: TGGAGGAAAAAAGAAAAAAAAAAAAAAAGATCCA", "values": [
      {"measurement": "binding result", "setting": "[3]", "value": "no binding"}
    ]},
    {"binder": "rDNA En (MST) (dsDNA) DNA 1: TCTTTTTTTTTTTTTTTCTTTTTTCCTCC DNA 2: GGAGGAAAAAAGAAAAAAAAAAAAAAAGA", "values": [
      {"measurement": "apparent K (half saturation)", "setting": "[4]", "value": "7 ± 1.7", "unit": "µM"},
      {"measurement": "binding result", "setting": "[5]", "value": "no binding"},
      {"measurement": "binding result", "setting": "[6]", "value": "no binding"}
    ]},
    {"binder": "GAGAAACCGUGUAAACAAAACAUAACUGAGAGG (structured_RNA)", "note": "[RNA2]", "values": [
      {"measurement": "apparent K (half saturation)", "setting": "[1]", "value": "938 ± 92", "unit": "nM"}
    ]}
  ]
}
